# According to paper PMC7935746:
# Legend:
# [1] = molecular target: His-tagged TriC transporter (Pseudomonas aeruginosa); assay: SEC
# [2] = molecular target: His-tagged TriC transporter (Pseudomonas aeruginosa); assay: cryo-EM structure
Substance,stoichiometry N [1],stoichiometry N [2]
His-tagged TriC transporter (natural protein),3,3
fused TriAB dimer (TriA and TriB on one polypeptide),1,–
